# In US20170247448A1 (INTRINSIC LIFESCIENCES, published 2017):
# B1: Human hepcidin peptide (hepcidin-25) (peptide)
# peptide: DTHFPICIFCCGCCHRSKCGMCCKT
# notes: Synthetic 25 aa peptide; also called hep-25; Hep-25
# Key:
# [1] = target: T1, MAb 583; test: C-ELISA with purified MAb 583; competitor NT-biotin hepcidin-25
# T1 construct: Murine monoclonal, Protein A purified
# [2] = target: T2, BAP070-hum04; test: C-ELISA: goat anti-human Fc coated plate, antibody captured (30 ng/well per title of FIG. 20D), unlabelled hepcidin titrated (ng/well per axis of FIG. 20D) against a labelled tracer not named for this figure; OD = tracer left on the antibody
# T2 construct: Expressed as soluble IgG1 in CHO cells, tested as supernatant; The entries stop inside FR4
# T2 sequence (VH, as listed by the source, chain 1 of 2): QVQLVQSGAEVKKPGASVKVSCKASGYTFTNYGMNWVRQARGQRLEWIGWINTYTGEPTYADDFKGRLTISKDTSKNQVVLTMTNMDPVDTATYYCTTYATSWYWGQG
# T2 sequence (VL, as listed by the source, chain 2 of 2): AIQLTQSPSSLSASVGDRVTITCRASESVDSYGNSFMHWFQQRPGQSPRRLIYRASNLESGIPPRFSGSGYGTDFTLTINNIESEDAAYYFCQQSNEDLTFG
# [3] = target: T3, BAP070-hum02; test: as above
# T3 construct: Expressed as soluble IgG1 in CHO cells, tested as supernatant; The entries stop inside FR4
# T3 sequence (VL, as listed by the source, chain 2 of 2): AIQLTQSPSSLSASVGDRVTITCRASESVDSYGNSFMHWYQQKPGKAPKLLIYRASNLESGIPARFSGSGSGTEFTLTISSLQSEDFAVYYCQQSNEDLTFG
# [4] = target: T4, BAP070-01 (human-mouse chimeric MAb 583); test: as above
# T4 construct: used as CHO cell supernatant; also called BAP070-1
# T4 sequence (VH, as listed by the source, chain 1 of 2): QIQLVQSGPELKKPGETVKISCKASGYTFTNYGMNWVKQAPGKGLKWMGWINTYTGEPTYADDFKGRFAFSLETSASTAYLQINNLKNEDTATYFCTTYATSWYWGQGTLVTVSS
# T4 sequence (VL, as listed by the source, chain 2 of 2): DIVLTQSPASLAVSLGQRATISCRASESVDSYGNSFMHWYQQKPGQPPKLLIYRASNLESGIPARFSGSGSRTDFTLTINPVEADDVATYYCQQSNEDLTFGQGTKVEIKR
# [5] = target: T5, BAP070-hum03; test: C-ELISA on goat anti-human Fc coat, hepcidin titrated against a labelled tracer not named for this figure
# T5 construct: Expressed as soluble IgG1 in CHO cells, tested as supernatant; The entries stop inside FR4
# T5 sequence (VH, as listed by the source, chain 1 of 2): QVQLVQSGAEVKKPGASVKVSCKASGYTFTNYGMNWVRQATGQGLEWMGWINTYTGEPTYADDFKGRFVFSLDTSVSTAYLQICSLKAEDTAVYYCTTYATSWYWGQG
# T5 sequence (VL, as listed by the source, chain 2 of 2): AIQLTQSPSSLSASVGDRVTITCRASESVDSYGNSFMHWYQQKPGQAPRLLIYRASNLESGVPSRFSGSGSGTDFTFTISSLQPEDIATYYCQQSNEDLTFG
# [6] = target: T2, BAP070-hum04; test: as above
# [7] = target: T6, BAP070-hum01; test: as above
# T6 construct: Expressed as soluble IgG1 in CHO cells, tested as supernatant; The entries stop inside FR4 (...WGQG / ...FG); also called humanized hit 1
# T6 sequence (VL, as listed by the source, chain 2 of 2): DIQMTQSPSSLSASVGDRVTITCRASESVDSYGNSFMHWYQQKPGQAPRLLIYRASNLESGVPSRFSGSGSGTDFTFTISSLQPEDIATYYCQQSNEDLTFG
# [8] = target: T7, BAP070-hum06; test: as above
# T7 construct: Expressed as soluble IgG1 in CHO cells, tested as supernatant; The entries stop inside FR4
# T7 sequence (VH, as listed by the source, chain 1 of 2): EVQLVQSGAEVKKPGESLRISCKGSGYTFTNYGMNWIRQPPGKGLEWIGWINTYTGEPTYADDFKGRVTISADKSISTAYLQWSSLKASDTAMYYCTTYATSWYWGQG
# [9] = target: T8, BAP070-hum05; test: as above
# T8 construct: Expressed as soluble IgG1 in CHO cells, tested as supernatant; The entries stop inside FR4
# [10] = target: T3, BAP070-hum02; test: as above
# [11] = target: T4, BAP070-01 (human-mouse chimeric MAb 583); test: as above
# [12] = target: T5, BAP070-hum03; test: C-ELISA: goat anti-human Fc coated plate, antibody captured, unlabelled hepcidin titrated against a labelled tracer not named for this figure; the EC50 row has 7 cells under 8 columns and is assigned in order to the 7 antibodies with human Fc
# [13] = target: T2, BAP070-hum04; test: as above
# [14] = target: T6, BAP070-hum01; test: as above
# [15] = target: T7, BAP070-hum06; test: as above
# [16] = target: T8, BAP070-hum05; test: as above
# [17] = target: T3, BAP070-hum02; test: as above
# [18] = target: T4, BAP070-01 (human-mouse chimeric MAb 583); test: as above
# [19] = target: T4, BAP070-01 (human-mouse chimeric MAb 583); test: C-ELISA, BAP070-01 supernatant on Protein G; competitor NT-biotin hepcidin-25; four parameter fit
# Procedure: The plate was washed with TBST and one (1) ng/well of NT-biotin hepcidin-25 was mixed with different amounts (0-100 ng) of synthetic hepcidin-25 standard in TBST, 0.25% BLOTTO and added onto the plate to bind competitively. The plate was washed with TBST and SA-HRP (1:2500) added and allowed to bind for 1 hour.
# The plate was washed with TBST and […] substrate added and the reaction stopped after 10 minutes with stop solution. Absorbance at 450 nm was measured on a spectrophotometer.
# T1 sequence (VH, as listed by the source, chain 1 of 2): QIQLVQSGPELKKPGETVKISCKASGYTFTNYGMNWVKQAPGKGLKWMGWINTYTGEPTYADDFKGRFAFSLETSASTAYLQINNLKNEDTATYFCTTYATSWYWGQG
# T1 sequence (VL, as listed by the source, chain 2 of 2): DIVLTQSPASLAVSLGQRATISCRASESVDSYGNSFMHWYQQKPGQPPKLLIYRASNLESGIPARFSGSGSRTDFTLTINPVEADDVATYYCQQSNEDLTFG
binder,measurement,setting,value
B1,EC50,[1],≤ 0.005 µg/mL
same,OD450 at 0.000 ng/well hepcidin,[2],0.433
same,OD450 at 0.137 ng/well hepcidin,[2],0.446
same,OD450 at 0.412 ng/well hepcidin,[2],0.415
same,OD450 at 1.235 ng/well hepcidin,[2],0.301
same,OD450 at 3.704 ng/well hepcidin,[2],0.148
same,OD450 at 11.111 ng/well hepcidin,[2],0.0719
same,OD450 at 33.333 ng/well hepcidin,[2],0.0303
same,OD450 at 100.000 ng/well hepcidin,[2],0.0135
same,OD450 at 0.000 ng/well hepcidin,[3],0.812
same,OD450 at 0.137 ng/well hepcidin,[3],0.844
same,OD450 at 0.412 ng/well hepcidin,[3],0.814
same,OD450 at 1.235 ng/well hepcidin,[3],0.539
same,OD450 at 3.704 ng/well hepcidin,[3],0.279
same,OD450 at 11.111 ng/well hepcidin,[3],0.125
same,OD450 at 33.333 ng/well hepcidin,[3],0.0475
same,OD450 at 100.000 ng/well hepcidin,[3],0.0189
same,OD450 at 0.000 ng/well hepcidin,[4],2.88
same,OD450 at 0.137 ng/well hepcidin,[4],2.77
same,OD450 at 0.412 ng/well hepcidin,[4],2.65
same,OD450 at 1.235 ng/well hepcidin,[4],1.77
same,OD450 at 3.704 ng/well hepcidin,[4],0.826
same,OD450 at 11.111 ng/well hepcidin,[4],0.334
same,OD450 at 33.333 ng/well hepcidin,[4],0.125
same,OD450 at 100.000 ng/well hepcidin,[4],0.0442
same,IC50 (read off the curve),[5],~2 ng/well
same,IC50 (read off the curve),[6],~2 ng/well
same,IC50 (read off the curve),[7],~2 ng/well
same,IC50 (read off the curve),[8],~2 ng/well
same,IC50 (read off the curve),[9],~2 ng/well
same,IC50 (read off the curve),[10],~2 ng/well
same,IC50 (read off the curve),[11],~2 ng/well
same,EC50,[12],0.0205 µg/mL
same,EC50,[13],0.0191 µg/mL
same,EC50,[14],0.0237 µg/mL
same,EC50,[15],0.0186 µg/mL
same,EC50,[16],0.0188 µg/mL
same,EC50,[17],0.0179 µg/mL
same,EC50,[18],0.0174 µg/mL
same,EC50,[19],0.054 µg/mL
